According to paper PMC11568366:

Biological target: SET/template-activating factor Iβ (SET/TAF-Iβ), recombinant (UniProt Q01105)
Assay: ITC; 300 μM reduced Cc injected (17 x 2.91 μL) into 30 μM SET/TAF-Iβ (as homodimer) in the cell, 25°C, 10 mM sodium phosphate pH 7.4; WT fitted with two cooperative binding sites, mutants with independent binding sites

Substance “Y48pCMF cytochrome c phosphomimetic mutant (reduced) (from UniProt P99999 2-105) (natural protein)” has a Kd of 23 µM, a dH of -4.6 kcal/mol and a stoichiometry N of 2.2.
